Experimental data reported in article PMC9274488.

What was measured:
[1] = nuclear/cytoplasmic fractionation blot and immunofluorescence; conditions: glycan lost; control: control cells (sh-CTRL)
[2] = cycloheximide chase, western blot; conditions: glycan lost; control: without BADGP
western blot = conditions: glycan lost; control: untreated
[3] = western blot, PANC1 and PaTU8988; conditions: glycan lost; control: sh-CTRL

B1: ZEB1: OGT knockdown (protein)
parent chain: MKVTNYNTVVETNSDSDDEDKLHIVEEESVTDAADCEGVPEDDLPTDQTVLPGRSSEREGNAKNCWEDDTGKEGQEILGPEAQADEAGCTVKDDECESDAENEQNHDPNVEEFLQQQDTAVIFPEAPEEDQRQGTPEASGHDENGTPDAFSQLLTCPYCDRGYKRFTSLKEHIKYRHEKNEDNFSCSLCSYTFAYRTQLERHMTSHKSGRDQRHVTQSGCNRKFKCTECGKAFKYKHHLKEHLRIHSGEKPYECPNCKKRFSHSGSYSSHISSKKCISLIPVNGRPRTGLKTSQCSSPSLSASPGSPTRPQIRQKIENKPLQEQLSVNQIKTEPVDYEFKPIVVASGINCSTPLQNGVFTGGGPLQATSSPQGMVQAVVLPTVGLVSPISINLSDIQNVLKVAVDGNVIRQVLENNQANLASKEQETINASPIQQGGHSVISAISLPLVDQDGTTKIIINYSLEQPSQLQVVPQNLKKENPVATNSCKSEKLPEDLTVKSEKDKSFEGGVNDSTCLLCDDCPGDINALPELKHYDLKQPTQPPPLPAAEAEKPESSVSSATGDGNLSPSQPPLKNLLSLLKAYYALNAQPSAEELSKIADSVNLPLDVVKKWFEKMQAGQISVQSSEPSSPEPGKVNIPAKNNDQPQSANANEPQDSTVNLQSPLKMTNSPVLPVGSTTNGSRSSTPSPSPLNLSSSRNTQGYLYTAEGAQEEPQVEPLDLSLPKQQGELLERSTITSVYQNSVYSVQEEPLNLSCAKKEPQKDSCVTDSEPVVNVIPPSANPINIAIPTVTAQLPTIVAIADQNSVPCLRALAANKQTILIPQVAYTYSTTVSPAVQEPPLKVIQPNGNQDERQDTSSEGVSNVEDQNDSDSTPPKKKMRKTENGMYACDLCDKIFQKSSSLLRHKYEHTGKRPHECGICKKAFKHKHHLIEHMRLHSGEKPYQCDKCGKRFSHSGSYSQHMNHRYSYCKREAEERDSTEQEEAGPEILSNEHVGARASPSQGDSDERESLTREEDEDSEKEEEEEDKEMEELQEEKECEKPQGDEEEEEEEEEVEEEEVEEAENEGEEAKTEGLMKDDRAESQASSLGQKVGESSEQVSEEKTNEA
With B1 the localisation_or_trafficking [1] was “decreases”.

B2: ZEB1: BADGP (protein)
parent chain: MKVTNYNTVVETNSDSDDEDKLHIVEEESVTDAADCEGVPEDDLPTDQTVLPGRSSEREGNAKNCWEDDTGKEGQEILGPEAQADEAGCTVKDDECESDAENEQNHDPNVEEFLQQQDTAVIFPEAPEEDQRQGTPEASGHDENGTPDAFSQLLTCPYCDRGYKRFTSLKEHIKYRHEKNEDNFSCSLCSYTFAYRTQLERHMTSHKSGRDQRHVTQSGCNRKFKCTECGKAFKYKHHLKEHLRIHSGEKPYECPNCKKRFSHSGSYSSHISSKKCISLIPVNGRPRTGLKTSQCSSPSLSASPGSPTRPQIRQKIENKPLQEQLSVNQIKTEPVDYEFKPIVVASGINCSTPLQNGVFTGGGPLQATSSPQGMVQAVVLPTVGLVSPISINLSDIQNVLKVAVDGNVIRQVLENNQANLASKEQETINASPIQQGGHSVISAISLPLVDQDGTTKIIINYSLEQPSQLQVVPQNLKKENPVATNSCKSEKLPEDLTVKSEKDKSFEGGVNDSTCLLCDDCPGDINALPELKHYDLKQPTQPPPLPAAEAEKPESSVSSATGDGNLSPSQPPLKNLLSLLKAYYALNAQPSAEELSKIADSVNLPLDVVKKWFEKMQAGQISVQSSEPSSPEPGKVNIPAKNNDQPQSANANEPQDSTVNLQSPLKMTNSPVLPVGSTTNGSRSSTPSPSPLNLSSSRNTQGYLYTAEGAQEEPQVEPLDLSLPKQQGELLERSTITSVYQNSVYSVQEEPLNLSCAKKEPQKDSCVTDSEPVVNVIPPSANPINIAIPTVTAQLPTIVAIADQNSVPCLRALAANKQTILIPQVAYTYSTTVSPAVQEPPLKVIQPNGNQDERQDTSSEGVSNVEDQNDSDSTPPKKKMRKTENGMYACDLCDKIFQKSSSLLRHKYEHTGKRPHECGICKKAFKHKHHLIEHMRLHSGEKPYQCDKCGKRFSHSGSYSQHMNHRYSYCKREAEERDSTEQEEAGPEILSNEHVGARASPSQGDSDERESLTREEDEDSEKEEEEEDKEMEELQEEKECEKPQGDEEEEEEEEEVEEEEVEEAENEGEEAKTEGLMKDDRAESQASSLGQKVGESSEQVSEEKTNEA
For B2, the degradation_or_half_life [2] was “decreases” and the expression_or_secretion (western blot) was “decreases”.

B3: ZEB1: sh-OGT (protein)
parent chain: MKVTNYNTVVETNSDSDDEDKLHIVEEESVTDAADCEGVPEDDLPTDQTVLPGRSSEREGNAKNCWEDDTGKEGQEILGPEAQADEAGCTVKDDECESDAENEQNHDPNVEEFLQQQDTAVIFPEAPEEDQRQGTPEASGHDENGTPDAFSQLLTCPYCDRGYKRFTSLKEHIKYRHEKNEDNFSCSLCSYTFAYRTQLERHMTSHKSGRDQRHVTQSGCNRKFKCTECGKAFKYKHHLKEHLRIHSGEKPYECPNCKKRFSHSGSYSSHISSKKCISLIPVNGRPRTGLKTSQCSSPSLSASPGSPTRPQIRQKIENKPLQEQLSVNQIKTEPVDYEFKPIVVASGINCSTPLQNGVFTGGGPLQATSSPQGMVQAVVLPTVGLVSPISINLSDIQNVLKVAVDGNVIRQVLENNQANLASKEQETINASPIQQGGHSVISAISLPLVDQDGTTKIIINYSLEQPSQLQVVPQNLKKENPVATNSCKSEKLPEDLTVKSEKDKSFEGGVNDSTCLLCDDCPGDINALPELKHYDLKQPTQPPPLPAAEAEKPESSVSSATGDGNLSPSQPPLKNLLSLLKAYYALNAQPSAEELSKIADSVNLPLDVVKKWFEKMQAGQISVQSSEPSSPEPGKVNIPAKNNDQPQSANANEPQDSTVNLQSPLKMTNSPVLPVGSTTNGSRSSTPSPSPLNLSSSRNTQGYLYTAEGAQEEPQVEPLDLSLPKQQGELLERSTITSVYQNSVYSVQEEPLNLSCAKKEPQKDSCVTDSEPVVNVIPPSANPINIAIPTVTAQLPTIVAIADQNSVPCLRALAANKQTILIPQVAYTYSTTVSPAVQEPPLKVIQPNGNQDERQDTSSEGVSNVEDQNDSDSTPPKKKMRKTENGMYACDLCDKIFQKSSSLLRHKYEHTGKRPHECGICKKAFKHKHHLIEHMRLHSGEKPYQCDKCGKRFSHSGSYSQHMNHRYSYCKREAEERDSTEQEEAGPEILSNEHVGARASPSQGDSDERESLTREEDEDSEKEEEEEDKEMEELQEEKECEKPQGDEEEEEEEEEVEEEEVEEAENEGEEAKTEGLMKDDRAESQASSLGQKVGESSEQVSEEKTNEA
For B3, the expression_or_secretion [3] was “decreases”.
